# Test results reported in patent publication US20060029603A1.
# Biological target: GST-human NOGO-A56 (human) [GST: P08515]
# Assay: SPR (Biacore 3000), GST-human NOGO-A56 on CM5, antibody as analyte; single experiment
# Sequence of GST-human NOGO-A56 (human) [GST: P08515] (P08515 1-218, tags or fused parts left off): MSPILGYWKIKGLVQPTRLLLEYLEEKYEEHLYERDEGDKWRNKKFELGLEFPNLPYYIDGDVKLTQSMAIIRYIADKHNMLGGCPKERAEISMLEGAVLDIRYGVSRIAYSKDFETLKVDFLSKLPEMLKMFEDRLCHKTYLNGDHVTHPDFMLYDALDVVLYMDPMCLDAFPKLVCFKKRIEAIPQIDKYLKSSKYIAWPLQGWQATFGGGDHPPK
substance,measurement,value
11C7 (chimeric version) (antibody),Kd,0.057 nM
same,koff,8.25e-05 s⁻¹
same,kon,1.44e+06 M⁻¹ s⁻¹
